Results on 2 molecules are retold here after PMC4305340.

Assay in all cases: fluorescence polarization
On the technique in general: Polarisation of emitted light reports the rotation of a fluorescent probe.

Data set [1] addresses T1, PrfA wild type (Listeria monocytogenes, UniProt P22262 1-237).
For a further data set, the target named is PrfA(C/A)4 (Listeria monocytogenes, UniProt P22262 1-237, C38A;C144A;C205A;C229A).
Data set [2] deals with T1, PrfA wild type. This is another data set of the same source.

Read-outs that look alike come from different tables or passages of the source.

B1: PactA PrfA box (dsDNA)
DNA 1: AACTGATTAACAAATGTTAGAGAAAACT
DNA 2: AGTTTTCTCTAACATTTGTTAATCAGTT
Turning to B1, the dissociation constant Kd stood at 96.4 nM with PrfA wild type [1] and 125 nM with PrfA(C/A)4.

B2: Phly PrfA box (dsDNA)
DNA 1: TGAGGCATTAACATTTGTTAACGACGAT
DNA 2: ATCGTCGTTAACAAATGTTAATGCCTCA
As for B2, the Kd with PrfA wild type [2] came out at 34.2 nM; with PrfA(C/A)4 it was 32.8 nM.

As a reminder, the Kd is the equilibrium constant for the complex coming apart. Higher therefore signals a looser complex.
